Results: IntAct's records for PubMed 27462807

B1: TP53-binding protein 1 (Homo sapiens), Q12888 (parent)
chain: MDPTGSQLDSDFSQQDTPCLIIEDSQPESQVLEDDSGSHFSMLSRHLPNLQTHKENPVLDVVSNPEQTAGEERGDGNSGFNEHLKENKVADPVDSSNLDTCGSISQVIEQLPQPNRTSSVLGMSVESAPAVEEEKGEELEQKEKEKEEDTSGNTTHSLGAEDTASSQLGFGVLELSQSQDVEENTVPYEVDKEQLQSVTTNSGYTRLSDVDANTAIKHEEQSNEDIPIAEQSSKDIPVTAQPSKDVHVVKEQNPPPARSEDMPFSPKASVAAMEAKEQLSAQELMESGLQIQKSPEPEVLSTQEDLFDQSNKTVSSDGCSTPSREEGGCSLASTPATTLHLLQLSGQRSLVQDSLSTNSSDLVAPSPDAFRSTPFIVPSSPTEQEGRQDKPMDTSVLSEEGGEPFQKKLQSGEPVELENPPLLPESTVSPQASTPISQSTPVFPPGSLPIPSQPQFSHDIFIPSPSLEEQSNDGKKDGDMHSSSLTVECSKTSEIEPKNSPEDLGLSLTGDSCKLMLSTSEYSQSPKMESLSSHRIDEDGENTQIEDTEPMSPVLNSKFVPAENDSILMNPAQDGEVQLSQNDDKTKGDDTDTRDDISILATGCKGREETVAEDVCIDLTCDSGSQAVPSPATRSEALSSVLDQEEAMEIKEHHPEEGSSGSEVEEIPETPCESQGEELKEENMESVPLHLSLTETQSQGLCLQKEMPKKECSEAMEVETSVISIDSPQKLAILDQELEHKEQEAWEEATSEDSSVVIVDVKEPSPRVDVSCEPLEGVEKCSDSQSWEDIAPEIEPCAENRLDTKEEKSVEYEGDLKSGTAETEPVEQDSSQPSLPLVRADDPLRLDQELQQPQTQEKTSNSLTEDSKMANAKQLSSDAEAQKLGKPSAHASQSFCESSSETPFHFTLPKEGDIIPPLTGATPPLIGHLKLEPKRHSTPIGISNYPESTIATSDVMSESMVETHDPILGSGKGDSGAAPDVDDKLCLRMKLVSPETEASEESLQFNLEKPATGERKNGSTAVAESVASPQKTMSVLSCICEARQENEARSEDPPTTPIRGNLLHFPSSQGEEEKEKLEGDHTIRQSQQPMKPISPVKDPVSPASQKMVIQGPSSPQGEAMVTDVLEDQKEGRSTNKENPSKALIERPSQNNIGIQTMECSLRVPETVSAATQTIKNVCEQGTSTVDQNFGKQDATVQTERGSGEKPVSAPGDDTESLHSQGEEEFDMPQPPHGHVLHRHMRTIREVRTLVTRVITDVYYVDGTEVERKVTEETEEPIVECQECETEVSPSQTGGSSGDLGDISSFSSKASSLHRTSSGTSLSAMHSSGSSGKGAGPLRGKTSGTEPADFALPSSRGGPGKLSPRKGVSQTGTPVCEEDGDAGLGIRQGGKAPVTPRGRGRRGRPPSRTTGTRETAVPGPLGIEDISPNLSPDDKSFSRVVPRVPDSTRRTDVGAGALRRSDSPEIPFQAAAGPSDGLDASSPGNSFVGLRVVAKWSSNGYFYSGKITRDVGAGKYKLLFDDGYECDVLGKDILLCDPIPLDTEVTALSEDEYFSAGVVKGHRKESGELYYSIEKEGQRKWYKRMAVILSLEQGNRLREQYGLGPYEAVTPLTKAADISLDNLVEGKRKRRSNVSSPATPTASSSSSTTPTRKITESPRASMGVLSGKRKLITSEEERSPAKRGRKSATVKPGAVGAGEFVSPCESGDNTGEPSALEEQRGPLPLNKTLFLGYAFLLTMATTSDKLASRSKLPDGPTGSSEEEEEFLEIPPFNKQYTESQLRAGAGYILEDFNEAQCNTAYQCLLIADQHCRTRKYFLCLASGIPCVSHVWVHDSCHANQLQNYRNYLLPAGYSLEEQRILDWQPRENPFQNLKVLLVSDQQQNFLELWSEILMTGGAASVKQHHSSAHNKDIALGVFDVVVTDPSCPASVLKCAEALQLPVVSQEWVIQCLIVGERIGFKQHPKYKHDYVSH

Variants of: B1
Settings: with H2BC10, P62807

Variant	effect of a mutation on the interaction
K1628C	decreasing interaction

Variants of: B1
Settings: with H2BC10, P62807
Remark: another data set of the same source

Variant	effect of a mutation on the interaction
T1609C	with no effect
